From paper PMC7293020 come the findings set out here.

One series concerns the target EcSSB (Escherichia coli, UniProt P0AGE0 1-178). As to the kind of experiment: MST.
The target in series [1] is EcSSB and the SSB-IDL fusions. As to the kind of experiment: ITC. On the technique in general: Isothermal titration calorimetry measures the heat released or taken up as one component is titrated into another.

Chain of EcSSB (P0AGE0 whole entry, the tested form may be a part): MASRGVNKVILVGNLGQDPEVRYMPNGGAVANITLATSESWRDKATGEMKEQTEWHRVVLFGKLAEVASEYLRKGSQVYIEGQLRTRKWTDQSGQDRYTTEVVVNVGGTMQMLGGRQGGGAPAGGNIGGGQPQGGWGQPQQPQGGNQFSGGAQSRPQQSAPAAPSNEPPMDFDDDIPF

What is called Kd is the free concentration of one partner at which half of the binding sites on the other are occupied at equilibrium, for simple one-to-one binding. Higher therefore signals a looser complex. TTTTTTTTTTTTTTTTTTTTTTTTTTTTTTTTTTT (ssDNA) [Cy5-dT35] returned a Kd with EcSSB of 1.23 ± 0.29 nM.

B1: Escherichia coli exonuclease I (ExoI) (enzyme)
chain: MMNDGKQQSTFLFHDYETFGTHPALDRPAQFAAIRTDSEFNVIGEPEVFYCKPADDYLPQPGAVLITGITPQEARAKGENEAAFAARIHSLFTVPKTCILGYNNVRFDDEVTRNIFYRNFYDPYAWSWQHDNSRWDLLDVMRACYALRPEGINWPENDDGLPSFRLEHLTKANGIEHSNAHDAMADVYATIAMAKLVKTRQPRLFDYLFTHRNKHKLMALIDVPQMKPLVHVSGMFGAWRGNTSWVAPLAWHPENRNAVIMVDLAGDISPLLELDSDTLRERLYTAKTDLGDNAAVPVKLVHINKCPVLAQANTLRPEDADRLGINRQHCLDNLKILRENPQVREKVVAIFAEAEPFTPSDNVDAQLYNGFFSDADRAAMKIVLETEPRNLPALDITFVDKRIEKLLFNYRARNFPGTLDYAEQQRWLEHRRQVFTPEFLQGYADELQMLVQQYADDKEKVALLKALWQYAEEIV
For the molecule B1, in series [1], the Kd lay within 4.46 to 5.78 µM.
